± gives the standard deviation.
Experiment: protein stability index of a GFP-peptide fusion (GPS, HEK-293T) (PSI 1-6); higher = more stable
Conditions: c terminus: a fixed tail appended
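Also: 24-mer peptide tiles fused after GFP, lentivirally expressed, FACS-sorted into six equal bins by GFP/DsRed ratio, decoded by Illumina sequencing, PSI is the read-weighted mean bin number.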

Sequence | protein stability index (treatment: DMSO) | protein stability index (treatment: MLN4924 1 uM, 8 h)
RCIGVTKPIFHSTKITSKHVKMML [PTGFR] | 2.13 ± 0.27 | 2.15 ± 0.28
ELCHHVAEVWVSGTIFIRNVLLFK [RETREG3] | 3.09 ± 0.67 | 2.81 ± 0.61
IEKEVFPIMAKEGQLYAMELQGFW [GMPPB] | 2.77 ± 0.44 | 2.27 ± 0.37
LDKLLQGGIETGSITEMFGEFRTG [RAD51] | 3.07 ± 0.26 | 3.06 ± 0.28
QEPPTTDSQEAQSPGHSSAGQEGE [TOR1AIP2] | 5.67 ± 0.25 | 5.56 ± 0.26
LIESEAPPKASEQETAKEEDGSVE [C18orf25] | 5.59 ± 0.31 | 5.77 ± 0.26
RSEQSVKLRRQVIQVVLNGMESYQ [ZER1] | 2.41 ± 0.13 | 2.32 ± 0.18
SGRLMGSPPVPGPSAALTTMQLFS [FBXO28] | 2.71 ± 0.25 | 2.63 ± 0.21
AANLPALVLKIMSGTFAPISDRYS [NEK8] | 3.08 ± 0.27 | 2.9 ± 0.56
SFTLADVSLAVTLHRLKFLGFARR [GDAP1] | 2.5 ± 0.64 | 2.33 ± 0.33
ERRPRRVEAERPHSLIGVIRETVL [FAM189A2] | 3.64 ± 0.32 | 3.91 ± 0.41
CIQQILEAVLHCHQMGVVHRDLKP [CAMK2A] | 2.75 ± 0.32 | 3.03 ± 0.36
HQEAEMAQNAVRLHYGLPVVVKLL [CTNNB1] | 2.58 ± 0.18 | 2.62 ± 0.21
FLPFLLCAVLLSAVQAQAGWLQHD [FADS1] | 2.73 ± 0.23 | 3.02 ± 0.66
PGAPRGNPPKASAAPDCTPSLEAG [MYCL] | 5.28 ± 0.34 | 5.36 ± 0.17
PGTSFKDSTKTAFHRSQTLSYRNG [EFHC1] | 3.68 ± 0.1 | 3.89 ± 0.11
TKLLSGSYDCTVKLWDPVDGSVVR [WDR88] | 3.1 ± 0.33 | 3.19 ± 0.26
YRLTEHERAHKGEKPYGCSECGKA [ZNF649] | 4.55 ± 0.38 | 4.85 ± 0.36
MIIVAISPKYKQDVEGAESQLDED [TRAF3IP2] | 2.52 ± 0.14 | 2.26 ± 0.25
